The subject of this series is p53 (full-length human) (Homo sapiens). Briefly: AFM. The conditions noted are these: AFM on mica, 'physiological buffer conditions', binding buffer and temperature not given in the material, DNA stock in 10 mM Tris-HCl pH 7.6, 1 mM EDTA.

Usually Kd stands for the constant that tells how readily two partners part at equilibrium. In turn, 20,000 bp DNA returned a Kd (logistic fit of site occupancy against p53 18.9-56.6 nM, DNA 1 ng/uL) of 328 nM. This lies in the sub-micromolar range.

For the substance 5000 bp DNA, for the setting “stated as approximately the same Kd as for 20,000 bp DNA, p53 18.9-56.6 nM”, the Kd was 328 nM.
